From article PMC8221569 come the findings set out here.

In the assay the target is human histones H3.1–H4 tetramer (human) (UniProt P68431). The assay is described as follows: ITC; MicroCal PEAQ-ITC, 20°C, 20 mM Tris-HCl pH 7.5, 500 mM NaCl; 300 μM DNAJC9 HBD in the syringe, 30 μM (dimers) H3-H4 in the cell; one set of sites model; n = 3. In general terms: ITC needs no label: the signal is the heat of the interaction.

Sequence of DNAJC9 HBD (171–249), GST tag removed (Q8WXX5 171-249): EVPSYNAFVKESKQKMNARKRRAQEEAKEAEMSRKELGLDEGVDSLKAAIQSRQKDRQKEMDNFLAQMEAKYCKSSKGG

Consider “DNAJC9 HBD (171–249), GST tag removed (from UniProt Q8WXX5 171-249) (domain or fragment)”, for which the Kd came out at 39.5 nM.

By Kd is commonly meant the free concentration of one partner at which half of the binding sites on the other are occupied at equilibrium, for simple one-to-one binding. The low end stands for higher affinity, the high end for lower affinity.
